Experimental data published in US12077763B2, “RNA-based control of powdery mildew” (Greenlight Biosciences, Inc., priority 2021, dated 2024).

System: E. necator
Assay: Leaf disc assay, dry inoculum (settling tower), decrease in disease severity / hyphal growth (Example 2)
Conditions: decrease in disease severity (hyphal growth) relative to untreated control, value ± SE; for % decrease =/− SE TP1: time point 1 (untreated control hyphal growth ≥50%); for % decrease =/− SE TP2: time point 2

B1: GS3928 (nucleic acid)
sense: UUGAAGUGGUUAAAAAACAUGUUGAGGAAACAGAAUGGGAAGAAGAACCUUCCAAGAAUGGAAGACUUGAUAUUGAUAUAAUAACCGCGGAAGCAAUGACACUUGCUCAUCAAAUUGCAAGUGGUGAGAAGACUAAAUAUGAUCUCAUCGAUGAAGGUUGGAAUAAAAAUUCAUUCAAGGAUCGCGAUGGCCUUCCUGAUUGGUUUCUGGAUGAUGAGAGUAAACAUGAUAAACCUCAUAGACCUAUCAGUGCUGCCGCUGCAAAUGCUAUAAAAGAAAAGCUGCGAGCCCUGAAUGCUCGACCAAUCAAAAAAGUACGUGAGGCUAAGAGUCGGAAAAAAUUCAAAGCUGCCCAACGACUUGAAAAACUCCGAAAAAAAU
antisense: AUUUUUUUCGGAGUUUUUCAAGUCGUUGGGCAGCUUUGAAUUUUUUCCGACUCUUAGCCUCACGUACUUUUUUGAUUGGUCGAGCAUUCAGGGCUCGCAGCUUUUCUUUUAUAGCAUUUGCAGCGGCAGCACUGAUAGGUCUAUGAGGUUUAUCAUGUUUACUCUCAUCAUCCAGAAACCAAUCAGGAAGGCCAUCGCGAUCCUUGAAUGAAUUUUUAUUCCAACCUUCAUCGAUGAGAUCAUAUUUAGUCUUCUCACCACUUGCAAUUUGAUGAGCAAGUGUCAUUGCUUCCGCGGUUAUUAUAUCAAUAUCAAGUCUUCCAUUCUUGGAAGGUUCUUCUUCCCAUUCUGUUUCCUCAACAUGUUUUUUAACCACUUCAA
- % decrease =/− SE TP1: 15 ± 6%
- % decrease =/− SE TP2: 9 ± 7%

B2: GS3925 (nucleic acid)
sense: UUUGAAAAACACACAACCCCAGAAGAAUACGAUAGCAUAUCAUUGGCCAAGCACCCUCAGUUGCAUGUUGAGGAUGAUUCAUGGCAUAGAGCAACUGGUACUUGUAAGUGUAAUAACUGUUAAUGAAGUAUAUAAUCCCAAAAAAUAGAACCAUAUAACCAGCCGGUAGAAUUGAGUAUACAAUACACAAAAUGUAUACAAGGAUUGCAGAGGGUAGAUAAAACCCGUAUUUGAAGACAGGAGGCUGUGUAAGCUCCCAGCGAUCCCUAGGGCUUUUUGAAUACAUACGCAUAAUUGGAUAUAGAGACACACUGCCAAACUCUAAGAGCCUUAAUGGUAUGAAACCAA
antisense: UUGGUUUCAUACCAUUAAGGCUCUUAGAGUUUGGCAGUGUGUCUCUAUAUCCAAUUAUGCGUAUGUAUUCAAAAAGCCCUAGGGAUCGCUGGGAGCUUACACAGCCUCCUGUCUUCAAAUACGGGUUUUAUCUACCCUCUGCAAUCCUUGUAUACAUUUUGUGUAUUGUAUACUCAAUUCUACCGGCUGGUUAUAUGGUUCUAUUUUUUGGGAUUAUAUACUUCAUUAACAGUUAUUACACUUACAAGUACCAGUUGCUCUAUGCCAUGAAUCAUCCUCAACAUGCAACUGAGGGUGCUUGGCCAAUGAUAUGCUAUCGUAUUCUUCUGGGGUUGUGUGUUUUUCAAA
- % decrease =/− SE TP1: 18 ± 4%
- % decrease =/− SE TP2: 3 ± 6%

B3: GS3929 (nucleic acid)
sense: AUUGUUGAUAAGUUCACUGGAAAUCUCCGUUAUAGGAUCUAUUCCUUCAUUUUGUUUCCGGAGUUUUUCUUCUUGUCGAGCACUCAUUUUGGUAGAGAAUGCCCAACAUGAAAGGCCCAAUUCGCGACAUACUAUGCACACAUCUAGACGAGGCGCAGUUUUGUCUUUCGUUAUCGCAAUUCCAAUGCAACGACGACAUUGUAAGACAAAAUUCUCAUGACCAAUUUUAGUAACCAAGUGAUCUCUGUUACUUCGAGGACCAAGACAAUUUUUGUGGAUUGAAGUUGAGCAUCCUUGACAGUAAAUAAGUUGGCUUGGGCCCUUGUUCGAAUUUCUCUCAUUUCCAAAGCAAACAUCACAAAAUUUAUUAUGAAAACUUCGAAAUAAAUUUU
antisense: AAAAUUUAUUUCGAAGUUUUCAUAAUAAAUUUUGUGAUGUUUGCUUUGGAAAUGAGAGAAAUUCGAACAAGGGCCCAAGCCAACUUAUUUACUGUCAAGGAUGCUCAACUUCAAUCCACAAAAAUUGUCUUGGUCCUCGAAGUAACAGAGAUCACUUGGUUACUAAAAUUGGUCAUGAGAAUUUUGUCUUACAAUGUCGUCGUUGCAUUGGAAUUGCGAUAACGAAAGACAAAACUGCGCCUCGUCUAGAUGUGUGCAUAGUAUGUCGCGAAUUGGGCCUUUCAUGUUGGGCAUUCUCUACCAAAAUGAGUGCUCGACAAGAAGAAAAACUCCGGAAACAAAAUGAAGGAAUAGAUCCUAUAACGGAGAUUUCCAGUGAACUUAUCAACAAU
- % decrease =/− SE TP2: 19 ± 7%

B4: GS3931 (nucleic acid)
sense: AUCAAUUUUUCAUUCUCCCUAAUAGAUUUGAUAUCCCGUUCUUUGAGAUAACUUAAUUCCUCUUUUAUGUCUUUUAGCUUUUUUUCUGCAGUCGCAAUUAGAGUCUCUUUUUCAGCAAUUUGAUCUUGAAGCUCAUUUUCUCUUUUUAAAAACUCUUCACGAUCAUCUUUUUCUAAUGCAAUUGGCGUAGAUGAGCGAUCUAAUAACGUUGAAGCUUCCGAUCUAGAUUCUACCUGCAGCCUAGAAGGAGUUGCAGGUCUUGGUGUUUUUAUUUUAGAAAGAUUAGCAGUAUCUAAAGGUGGUACCCAUUUUUCUUUAGGCACACUAUCUCCAGACCUCCACUGCUGAACUUCUGCAUCAAGUGUCUGUACAUAUUGUUCAAAUGUAGUAA
antisense: UUACUACAUUUGAACAAUAUGUACAGACACUUGAUGCAGAAGUUCAGCAGUGGAGGUCUGGAGAUAGUGUGCCUAAAGAAAAAUGGGUACCACCUUUAGAUACUGCUAAUCUUUCUAAAAUAAAAACACCAAGACCUGCAACUCCUUCUAGGCUGCAGGUAGAAUCUAGAUCGGAAGCUUCAACGUUAUUAGAUCGCUCAUCUACGCCAAUUGCAUUAGAAAAAGAUGAUCGUGAAGAGUUUUUAAAAAGAGAAAAUGAGCUUCAAGAUCAAAUUGCUGAAAAAGAGACUCUAAUUGCGACUGCAGAAAAAAAGCUAAAAGACAUAAAAGAGGAAUUAAGUUAUCUCAAAGAACGGGAUAUCAAAUCUAUUAGGGAGAAUGAAAAAUUGAU
- % decrease =/− SE TP1: 14 ± 4%

B5: GS3927 (nucleic acid)
sense: CUGAAUCAGAUGAUGGGGGUAAUGAACGUAUGAUAAAUAGUAAGAAACCGCGAAGUACAUGCUCGAAGACCCUAAGGGAAAAAGAUUUGAAAGAUGAUAAAGAAAAGUCCAGAUCUGAUGCUGUAGCUAAAAGAAAUGGUCGUACAGAGCGGAGAAGAACUGAAGAUCAAGAAACACAGAAGGAAUUGUCAAUUGGUACUAAAAAUACAAUGUGCAAUAGCACAGACUCUUCUAAAGUCUCUACAACGAUUGAAUCUCUUGAGUCUCCGACAUUAUCAAAUGGUAGAGUUUCAGACAAUUCAUCUAACAACCAAUUUCCAAUACCUUUAAAAAAAAGCUACCGUAAUUCAAAUUCUAGGAAAGGGAAAUUAGCCAAAAAUAAUUUCACAAGGGAAU
antisense: AUUCCCUUGUGAAAUUAUUUUUGGCUAAUUUCCCUUUCCUAGAAUUUGAAUUACGGUAGCUUUUUUUUAAAGGUAUUGGAAAUUGGUUGUUAGAUGAAUUGUCUGAAACUCUACCAUUUGAUAAUGUCGGAGACUCAAGAGAUUCAAUCGUUGUAGAGACUUUAGAAGAGUCUGUGCUAUUGCACAUUGUAUUUUUAGUACCAAUUGACAAUUCCUUCUGUGUUUCUUGAUCUUCAGUUCUUCUCCGCUCUGUACGACCAUUUCUUUUAGCUACAGCAUCAGAUCUGGACUUUUCUUUAUCAUCUUUCAAAUCUUUUUCCCUUAGGGUCUUCGAGCAUGUACUUCGCGGUUUCUUACUAUUUAUCAUACGUUCAUUACCCCCAUCAUCUGAUUCAG
- % decrease =/− SE TP1: 7 ± 3%

B6: GS1816: dsRNA trigger SEQ ID NO 174; gene target Plasma membrane ATPase (nucleic acid)
DNA: CAACCACTGAGACTTGTTCAATACATGATACACAATAGCAATCACTATCGTGACAGCAATAGAATAGCCCCAGACAACAATAATAGTGACAATGGAGGTTCTTCCGTCAGTAGATAAAAGGGAGTTTAATGTGGCAGGATCTGAAGGCTCACCAGCACCGCCAGTTAACCAACCAAAGAGACAGAAGAGAGTTGCAAGTACATCAACACCGAATATAGCAGCAACGAGTGCAAATGCAGGATAAGTCTCATCTCCTCTGGTGACAAAGATGAGCCAGTTTTCGGTGAGAGAAATTTGAAGGAATAACATTCCCTGGATAGATCCAAAGTTATCAATCATGCCACCATTAGGTAAGAAAAGCGAGCCACGTAATACCCATGTTCCAAGAGCAAGCAATATGCCAAGAACAACAGAGATAATCCAGATTTTAGGTAATTGCCACTCAACAGGTCGAATCTCAAAGTGAGCGTTGTCGTATGCAACTGCAATTGTGGCTAAATCGGCAAAAAGTGCAAGGAAGACAATTAAATCAACCCGGACAGTTTCGTTAATAATGATCATAGAGGTTACAAGATAGATTTCTAAGTGTAAACATAA
- % decrease =/− SE TP1: 61 ± 2%
- % decrease =/− SE TP2: 50 ± 7%

B7: GS3930 (nucleic acid)
sense: CUAACGAGUGAUCGAAGCCCAUCUGAAAGAUUUUGAGUUAUGCUUUUACCAACUAUUACAGUAUCUGAGCUCAGUCGCGAGAGUAAAUCCCCGACUCGAUUGGCGUCAAAGAACUCGGCAUCUUGUACAAAUGUCCUUCGAAAUAAUUUUGAUCGGAGUCUUGAAAUUACUCUUUCUCCAACUAUUCUCAGAAUUAAUAUCCGUCCAUAAUUAGCUACAGCACCUAUUGAUAGUAUAAGCCCAAGAGCCCCGAAAAAUUGUUGAUUAUUAAGUUCAAAAAGUGUGUUUCCUUCUGAGUUUUUGGUUGCAAGGUCUAAUAUUUUACCGAUUGAAAAAGGAAUUGCCAUUGAUAUGGAUGAAGAUACUAAUAAAAAGAAAAAUGCCAAACUGAGC
antisense: GCUCAGUUUGGCAUUUUUCUUUUUAUUAGUAUCUUCAUCCAUAUCAAUGGCAAUUCCUUUUUCAAUCGGUAAAAUAUUAGACCUUGCAACCAAAAACUCAGAAGGAAACACACUUUUUGAACUUAAUAAUCAACAAUUUUUCGGGGCUCUUGGGCUUAUACUAUCAAUAGGUGCUGUAGCUAAUUAUGGACGGAUAUUAAUUCUGAGAAUAGUUGGAGAAAGAGUAAUUUCAAGACUCCGAUCAAAAUUAUUUCGAAGGACAUUUGUACAAGAUGCCGAGUUCUUUGACGCCAAUCGAGUCGGGGAUUUACUCUCGCGACUGAGCUCAGAUACUGUAAUAGUUGGUAAAAGCAUAACUCAAAAUCUUUCAGAUGGGCUUCGAUCACUCGUUAG
- % decrease =/− SE TP1: 10 ± 4%
